Experimental data: patent publication US20260070940A1 (Hoffmann-La Roche, published 2026)
Where a chain is given by its changes, count along the chain named. Several values for one entry are separate records, joined by “and”; a condition that tells them apart may be missing. Equal entries are not always repeated. One block for each binder: values may come before it.

Experiments:
[1] = biological target: T1, human FAP avi his, biotinylated (human, UniProt Q12884 27-759, biotin on the avi-tag); experiment: SPR, bacterial supernatant;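 note: SPR at 25 °C with biotinylated human or murine FAP captured via neutravidin, aVH-containing bacterial supernatants diluted 1:3 as analyte, 600 s dissociation, blank supernatant without aVH as reference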
T1 construct: also called huFAP

[2] = biological target: T2, murine FAP avi his, biotinylated (murine, UniProt P97321 27-761, biotin on the avi-tag); experiment: SPR, bacterial supernatant;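 note: SPR at 25 °C with biotinylated human or murine FAP captured via neutravidin, aVH-containing bacterial supernatants diluted 1:3 as analyte, 600 s dissociation, blank supernatant without aVH as reference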
T2 construct: also called muFAP; mu FAP

[3] = biological target: T2, murine FAP avi his, biotinylated; experiment: SPR, purified aVH, FAP immobilised
[4] = biological target: T3, murine LAG3-Fc antigen (R&D Systems, 3328-L3-050) (murine, UniProt Q61790 24-442); experiment: ELISA, murine LAG3-Fc
T3 construct: Bought
T3 sequence (looked up): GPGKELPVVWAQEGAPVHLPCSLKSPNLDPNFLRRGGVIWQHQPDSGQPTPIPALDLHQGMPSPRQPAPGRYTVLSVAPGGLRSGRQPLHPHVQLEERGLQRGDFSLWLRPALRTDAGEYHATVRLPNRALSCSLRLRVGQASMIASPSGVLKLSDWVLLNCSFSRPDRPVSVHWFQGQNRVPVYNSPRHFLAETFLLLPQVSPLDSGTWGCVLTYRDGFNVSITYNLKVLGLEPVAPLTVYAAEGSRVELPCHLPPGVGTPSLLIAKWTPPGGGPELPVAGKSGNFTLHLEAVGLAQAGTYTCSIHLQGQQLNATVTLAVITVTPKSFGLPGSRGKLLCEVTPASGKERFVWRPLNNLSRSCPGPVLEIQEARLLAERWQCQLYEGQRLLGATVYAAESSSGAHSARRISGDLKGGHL

[5] = biological target: T4, human LAG3 on recombinant CHO cells (human, UniProt P18627 23-525); experiment: cell ELISA, CHO-LAG3
T4 construct: whole, on cells; also called Lag3 cells
T4 sequence (looked up): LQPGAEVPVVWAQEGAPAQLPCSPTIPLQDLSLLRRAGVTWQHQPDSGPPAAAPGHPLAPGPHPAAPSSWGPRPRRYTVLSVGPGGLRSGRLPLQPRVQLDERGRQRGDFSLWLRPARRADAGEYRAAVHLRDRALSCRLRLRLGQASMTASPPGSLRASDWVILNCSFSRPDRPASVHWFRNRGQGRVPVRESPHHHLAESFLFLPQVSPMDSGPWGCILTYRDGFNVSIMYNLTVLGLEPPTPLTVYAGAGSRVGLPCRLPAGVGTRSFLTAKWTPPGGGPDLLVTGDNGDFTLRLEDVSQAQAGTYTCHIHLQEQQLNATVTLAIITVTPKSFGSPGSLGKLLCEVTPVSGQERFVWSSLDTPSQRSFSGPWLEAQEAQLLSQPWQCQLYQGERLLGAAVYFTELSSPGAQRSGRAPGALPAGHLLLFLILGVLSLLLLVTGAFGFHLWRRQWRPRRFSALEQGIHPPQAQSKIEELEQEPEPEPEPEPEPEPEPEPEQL

[6] = biological target: T5, recombinant human LAG3 Fc Chimera Protein (R&D Systems, 2319-L3) (human, UniProt P18627 23-450); experiment: ELISA, coated LAG3 Fc
T5 construct: Bought
T5 sequence (looked up): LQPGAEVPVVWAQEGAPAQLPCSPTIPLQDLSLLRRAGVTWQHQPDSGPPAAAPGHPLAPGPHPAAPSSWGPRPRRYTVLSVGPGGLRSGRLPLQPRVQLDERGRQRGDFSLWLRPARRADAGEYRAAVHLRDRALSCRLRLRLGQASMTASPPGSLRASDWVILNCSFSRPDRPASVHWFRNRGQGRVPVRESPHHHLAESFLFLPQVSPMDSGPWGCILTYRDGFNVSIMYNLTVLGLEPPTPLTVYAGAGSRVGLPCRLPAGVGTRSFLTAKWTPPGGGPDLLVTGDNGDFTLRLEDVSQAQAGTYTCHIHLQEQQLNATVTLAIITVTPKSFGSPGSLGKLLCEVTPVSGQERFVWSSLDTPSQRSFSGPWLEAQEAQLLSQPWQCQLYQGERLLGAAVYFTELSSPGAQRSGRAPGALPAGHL

[7] = biological target: T6, soluble human Lag3-IgG1-Fc with biotinylated C-terminal Avi-tag (human, biotin on the Avi-tag); experiment: A375 MHCII competition ELISA
T6 construct: Lag3 ECD, IEGRMD linker, IgG1 Fc, Avi-tag; also called LAG3-Fc-avi; biotinylated LAG3-Fc

[8] = biological target: T5, recombinant human LAG3 Fc Chimera …; experiment: SPR, captured aVH-Fc, LAG3 Fc analyte
[9] = biological target: T6, soluble human Lag3-IgG1-Fc with …; experiment: A375 MHCII competition ELISA, 3 ug/ml
[10] = biological target: T6, soluble human Lag3-IgG1-Fc with …; experiment: SPR, LAG3-Fc immobilised
[11] = biological target: T6, soluble human Lag3-IgG1-Fc with …; experiment: ELISA, supernatant on biotinylated antigen
[12] = biological target: T7, MCSP antigen, amino acids 1553 to 2184 of matured MCSP with C-terminal avi-tag and His-tag, biotinylated (Homo sapiens (Human), UniProt Q6UVK1 1582-2213, limits assumed, biotin on the avi-tag); experiment: ELISA, supernatant on biotinylated antigen
T7 construct: also called recombinant MCSP
T7 sequence: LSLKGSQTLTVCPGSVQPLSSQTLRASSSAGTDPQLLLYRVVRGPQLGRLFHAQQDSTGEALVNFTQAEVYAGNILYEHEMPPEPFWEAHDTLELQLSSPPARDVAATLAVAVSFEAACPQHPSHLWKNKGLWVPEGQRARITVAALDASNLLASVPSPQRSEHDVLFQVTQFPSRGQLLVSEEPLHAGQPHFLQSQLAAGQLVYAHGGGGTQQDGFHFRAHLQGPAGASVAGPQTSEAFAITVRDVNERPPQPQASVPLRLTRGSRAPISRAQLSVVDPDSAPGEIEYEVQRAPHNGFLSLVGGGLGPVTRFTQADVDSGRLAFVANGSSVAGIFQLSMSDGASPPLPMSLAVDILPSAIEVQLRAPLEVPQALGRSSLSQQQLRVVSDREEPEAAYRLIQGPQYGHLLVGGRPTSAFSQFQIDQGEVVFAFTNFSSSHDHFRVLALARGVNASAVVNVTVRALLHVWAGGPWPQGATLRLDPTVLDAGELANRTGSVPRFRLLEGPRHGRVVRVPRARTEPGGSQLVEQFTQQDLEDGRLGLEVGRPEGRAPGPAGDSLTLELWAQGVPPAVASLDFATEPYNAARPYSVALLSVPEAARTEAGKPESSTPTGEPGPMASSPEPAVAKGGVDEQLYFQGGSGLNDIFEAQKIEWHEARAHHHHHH

[13] = biological target: T5, recombinant human LAG3 Fc Chimera …; experiment: SPR, captured antibody, LAG3 Fc analyte
[14] = biological target: T1, human FAP avi his, biotinylated; experiment: SPR, purified aVH, FAP immobilised

B1: anti-FAP aVH P049.004 (VHH)
VHH: EVQLVESGGGLVQPGGSLRLSCAASSFNIKDTYIGWVRRAPGKEEELVANIYCNYGYTRYADSVKGRFTISCDTSKNTAYLQMNSLRAEDTAVYYCATSHTRYHYKYWGQGTTVTVSS
koff [1]: 0.00508 s⁻¹
koff [2]: 0.00207 s⁻¹
Kd [3]: 23 nM
koff [3]: 0.00102 s⁻¹
kon [3]: 51000 M⁻¹ s⁻¹

B2: 9B4 aVH-Fc, bivalent (PG-LALA) (Fc fusion)
chain: EVQLVESGGGLVQPGGSLRLSCAASGFNIKDTCIGWVRRAPGKGTELVAEICQDIGYTRYADSVKGRFTISADTSKNTAYLQMNSLRAEDTAVYYCAAVEVAEYFEYWGQGTTVTVSS
notes: not shown: linker and human IgG1 Fc (PG-LALA)
binding result [4]: no binding
EC50 [5]: 0.0288 µg/mL and 0.4 nM
OD max [5]: 1.3
EC50 [6]: 0.0194 µg/mL and 0.3 nM
OD max [6]: 1.2
IC50 [7]: 0.0762 µg/mL and 1 nM
koff [8]: 0.00019 s⁻¹
t½ [8]: 1.02 h
% Inhibition [9]: 95.5%

B3: LAG3 9B4 aVH (VHH)
VHH: B2 chain
Kd [10]: 86 nM
koff [10]: 0.00314 s⁻¹
kon [10]: 36500 M⁻¹ s⁻¹

B4: SEQ ID NO 89 (VHH)
VHH: B2 chain with Q53T, I55A, V99S, V101S, A102P, E103S, Y104G, E106R
notes: also called LAG3-specific aVH
binding result [11]: binds

B14: MDX 25F7 (antibody, V domains shown)
VH: QVQLQQWGAGLLKPSETLSLTCAVYGGSFSDYYWNWIRQPPGKGLEWIGEINHNGNTNSNPSLKSRVTLSLDTSKNQFSLKLRSVTAADTAVYYCAFGYSDYEYNWFDPWGQGTLVTVSS
VL: EIVLTQSPATLSLSPGERATLSCRASQSISSYLAWYQQKPGQAPRLLIYDASNRATGIPARFSGSGSGTDFTLTISSLEPEDFAVYYCQQRSNWPLTFGQGTNLEIK
OD max [5]: 2.06
EC50 [6]: 0.0031 µg/mL and 0.02 nM
OD max [6]: 3.39
IC50 [7]: 0.127 µg/mL and 0.8 nM
% Inhibition [9]: 90.4%
koff [13]: 0.00039 s⁻¹
t½ [13]: 0.5 h

B15: LAG3 P11A2 aVH (VHH)
VHH: EVQLVESGGGLVQPGGSLRLSCAASSFNIKDTYIGWVRRAPGKGTELVAEIACHEGTTRYADSVKGRFTISCDTSKNTAYLQMNSLRAEDTAVYYCANTEYDDIFDYWGQGTTVTVSS
Kd [10]: 55 nM
koff [10]: 0.0138 s⁻¹
kon [10]: 251000 M⁻¹ s⁻¹

B16: anti-FAP aVH P034.090 (VHH)
VHH: EVQLVESGGGLVQPGGSLRLSCAASGFNIKDTCIGWVRRAPGKEEELVANICSSYGHTRYADSVKGRFTISADTSKNTAYLQMNSLRAEDTAVYYCASSYTIYRYSYWGQGTTVTVSS
koff [1]: 0.00107 s⁻¹
koff [2]: 0.0255 s⁻¹
Kd [14]: 0.846 nM
koff [14]: 0.00046 s⁻¹
kon [14]: 552000 M⁻¹ s⁻¹

B17: anti-FAP aVH P047.001 (VHH)
VHH: B16 VHH with S53G, S54K, Y55I, H57I, S98N, Y103V, S106D
koff [1]: 0.00542 s⁻¹
koff [2]: 0.0157 s⁻¹
Kd [14]: 1.15 nM
koff [14]: 0.00133 s⁻¹
kon [14]: 1.15e+06 M⁻¹ s⁻¹
Kd [3]: 24.5 nM
koff [3]: 0.00784 s⁻¹
kon [3]: 320000 M⁻¹ s⁻¹

Next, values leading:

binding result [11]: binds
B5: SEQ ID NO 97 (VHH)
VHH: B2 chain with Q53D, A98S, V99Q, V101H, A102Q, E103W, Y104S, E106K
notes: also called LAG3-specific aVH

binding result [11]: binds
B6: SEQ ID NO 83 (VHH)
VHH: B2 chain with Q53E, V99N, V101H, A102S, E103V, Y104G, E106N
notes: also called LAG3-specific aVH

binding result [11]: binds
B7: SEQ ID NO 85 (VHH)
VHH: B2 chain with A98G, V99E, V101G, E103T, Y104N, E106K
notes: also called LAG3-specific aVH

binding result [11]: binds
B8: SEQ ID NO 77 (VHH)
VHH: B2 chain with Q53T, V99G, V101G, A102S, E103S, Y104G, E106H
notes: also called LAG3-specific aVH

binding result [4]: no binding
EC50 [5]: 0.029 µg/mL and 0.4 nM
OD max [5]: 1.2
EC50 [6]: 0.113 µg/mL and 1.5 nM
OD max [6]: 0.9
IC50 [7]: 0.0933 µg/mL and 1.2 nM
koff [8]: 0.00011 s⁻¹
t½ [8]: 1.7 h
% Inhibition [9]: 93.4%
B9: P10D1 aVH-Fc, bivalent (PG-LALA) (Fc fusion)
chain: B2 chain with N28S, G35A, Q53E, V99K, V101A, A102G, E103V, Y104G, E106D
notes: as for B2

binding result [11]: binds
B10: SEQ ID NO 95 (VHH)
VHH: B2 chain with D31Y, T32Q, Q53S, D54Y, I55D, V99E, V101S, A102V, Y104G, E106I
notes: also called LAG3-specific aVH

binding result [11]: binds
B11: SEQ ID NO 91 (VHH)
VHH: B2 chain with Q53H, V99E, V101H, A102V, E103A, Y104S
notes: also called LAG3-specific aVH

binding result [11]: binds
B12: SEQ ID NO 79 (VHH)
VHH: B2 chain with V99D, V101S, A102V, E103D, Y104N, E106K
notes: also called LAG3-specific aVH

binding result [12]: binds
B13: SEQ ID NO 59 (VHH)
VHH: EVQLVESGGGLVQPGGSLRLSCAASSFNIKDTYIGWVRRAPGKGTELVADIYCSEGSTRYADSVKGRFTISCDTSKNTAYLQMNSLRAEDTAVYYCAAVSDYVVFYYWGQGTTVTVSS
notes: also called MCSP-specific aVH
